Reference: patent publication US20100261778, “Tumor Suppressor Killin” (published 2010)

Target: T1, Killin/N8-50 peptide (Homo sapiens, UniProt B2CW77 SEQ:8-49)
T1 chain: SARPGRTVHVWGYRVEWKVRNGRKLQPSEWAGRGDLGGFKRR
Assay: EMSA; apparent Kd; 20 mM Tris-Cl pH 8.4, 25 mM KCl, 1.5 mM MgCl2, 100 ug/mL BSA, RT
Details: protein: synthetic, tags: chemically synthesized 42 aa peptide (Sigma-Genosys, at least 70% purity)
Excerpt: After annealing, probes for artificial replication fork (LL and RL) or double-stranded DNA template (LL and RLM) were end-labeled with α-³²P-dATP (Perkin-Elmer) using Klenow (New England Biolab). Single-stranded oligonucleotide (LL) was end-labeled with […] (Perkin-Elmer) using T4 polynucleotide kinase (New England Biolab). After purifying with Sephadex-G50 spin columns (Roche), the labeled probes (200,000 CPM each) were mixed with an increasing amount of Killin/N8-50 peptide in the presence of 20 mM Tris-Cl (pH 8.4), 25 mM KCl, 1.5 mM MgCl₂ and 100 μg/mL of BSA. The reaction mixtures were incubated at RT for 30 min and separated on a 6% polyacrylamide gel with 1× TBE buffer. After drying the gel onto a Whatman No. 1 filter paper, the DNA-protein complexes were visualized by autoradiography. For binding kinetics, bands from DNA-peptide complex were excised and the radioactivity was determined by scintillation counting. To determine the stability of the DNA-Killin peptide complex, 0.5 μg of either double-stranded (RF form) or single-stranded (viral form) of PhiX174 bacterial phage DNA (New England Biolab) were incubated at room temperature for 30 min with 1 ug of Killin/N8-50 peptide in a 20 μL reaction. The samples were then resolved on a 0.8% TAE agarose gel and stained with ethidium bromide.

B1: LL single-stranded oligonucleotide (ssDNA)
DNA: TTTGCACGTCGGATCCGACCCAGACTACGGAGGCC
Question: B1 was tested. Which Kd (label: 32P (T4 PNK)) did it give?
Answer: 500 nM

B2: LL/RL artificial replication fork (structured_DNA)
DNA 1: TTTGCACGTCGGATCCGACCCAGACTACGGAGGCC
DNA 2: CCGGAGGCATCAGACGGTCGGATCCGACGTGC
Question: Which Kd (label: 32P (Klenow fill-in), replication fork with unpaired arms) does the source give for B2 here?
Answer: 1000 nM

B3: LL/RLM double-stranded DNA (dsDNA)
DNA 1: TTTGCACGTCGGATCCGACCCAGACTACGGAGGCC
DNA 2: GGCCTCCGTAGTCTGGGTCGGATCCGACGTGC
Question: Which Kd (label: 32P (Klenow fill-in)) does the source give for B3 here?
Answer: 1000 nM
